{"source": "patent US20050089871", "target": "D1 receptor of human renal proximal tubule cells (UniProt P21728)", "sequence (P21728 whole entry)": "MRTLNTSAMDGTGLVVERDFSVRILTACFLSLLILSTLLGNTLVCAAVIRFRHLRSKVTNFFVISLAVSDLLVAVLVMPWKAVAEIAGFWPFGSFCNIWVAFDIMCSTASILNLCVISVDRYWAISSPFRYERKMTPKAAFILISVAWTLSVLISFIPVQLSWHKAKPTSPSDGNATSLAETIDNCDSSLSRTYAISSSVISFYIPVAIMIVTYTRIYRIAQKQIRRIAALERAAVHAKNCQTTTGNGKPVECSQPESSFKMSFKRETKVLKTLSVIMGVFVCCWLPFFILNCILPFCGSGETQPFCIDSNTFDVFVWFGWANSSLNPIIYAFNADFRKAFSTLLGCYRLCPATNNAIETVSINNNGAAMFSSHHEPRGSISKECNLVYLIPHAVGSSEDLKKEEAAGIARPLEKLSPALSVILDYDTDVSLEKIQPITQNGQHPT"}
{"substance": "GRK4 of human renal proximal tubule cells", "values": [{"measurement": "serine phosphorylation of the D1 receptor (immunoprecipitation with anti D1 receptor antibody, anti-phosphoserine immunoblot) after GRK4 antisense treatment", "result": "GRK4 antisense treatment almost completely abolished the phosphorylation of the D1 receptor in fenoldopam-treated renal proximal tubule cells from hypertensive subjects to levels that are lower than basal values"}]}
